The record followed here is FireProtDB (doi:10.1021/bi00072a011).

B1: Tryptophan synthase alpha chain, P00929 (parent)
chain: MERYENLFAQLNDRREGAFVPFVTLGDPGIEQSLKIIDTLIDAGADALELGVPFSDPLADGPTIQNANLRAFAAGVTPAQCFEMLALIREKHPTIPIGLLMYANLVFNNGIDAFYARCEQVGVDSVLVADVPVEESAPFRQAALRHNIAPIFICPPNADDDLLRQVASYGRGYTYLLSRSGVTGAENRGALPLHHLIEKLKEYHAAPALQGFGISSPEQVSAAVRAGAAGAISGSAIVKIIEKNLASPKQMLAELRSFVSAMKAASRA

Variants of B1 are the subject of this series. The following applies: Salmonella typhimurium (strain LT2 / SGSC1412 / ATCC 700720); pH 7.8; 25 °C; Urea; CD; Potassium phosphate 10 mM; transition: 3; structure 2WSY; whole UniProt chain shown.

Values joined by “and” are separate entries in the source; they are usually repeats but may differ in a detail not shown here. Equal entries are not always repeated.

Take MERYENLFAQLNDRREGAFVPFVTLGDPGIEQSLKIIDTLIDAGADALELGVPFSDPLADGPTIQNANLRAFAAGVTPAQCFEMLALIREKHPTIPIGLLMYANLVFNNGIDAFYARCEQVGVDSVLVADVPVEESAPFRQAALRHNIAPIFICPPNADDDLLRQVASYGRGYTQLLSRSGVTGAENRGALPLHHLIEKLKEYHAAPALQGFGISSPEQVSAAVRAGAAGAISGSAIVKIIEKNLASPKQMLAELRSFVSAMKAASRA [Y175Q]: the denaturant m value was 2.9 kcal/mol/M and 2.7 kcal/mol/M; the “denaturant midpoint (higher = more stable)” value (“denaturant midpoint” for short) is 2.05 M and 2.91 M; the unfolding free energy is 6 kcal/mol and 7.9 kcal/mol.

MERYENLFAQLNDRREGAFVPFVTLGDPGIEQSLKIIDTLIDAGADALELGVPFSDPLADGPTIQNANLRAFAAGVTPAQCFEMLALIREKHPTIPIGLLMYANLVFNNGIDAFYARCEQVGVDSVLVADVPVEESAPFRQAALRHNIAPIFICPPNADDDLLRQVASYGRGYTQLLSRSGVTGAENRGALPLHHLIEKLKEYHAAPAVQGFGISSPEQVSAAVRAGAAGAISGSAIVKIIEKNLASPKQMLAELRSFVSAMKAASRA [Y175Q L209V]: the denaturant m value is 1.6 kcal/mol/M and 2.2 kcal/mol/M; the “denaturant midpoint” value was 2.23 M and 4.32 M; the unfolding free energy was 3.6 kcal/mol and 9.7 kcal/mol.

As for MERYENLFAQLNDRREGGFVPFVTLGDPGIEQSLKIIDTLIDAGADALELGVPFSDPLADGPTIQNANLRAFAAGVTPAQCFEMLALIREKHPTIPIGLLMYANLVFNNGIDAFYARCEQVGVDSVLVADVPVEESAPFRQAALRHNIAPIFICPPNADDDLLRQVASYGRGYTYLLSRSGVTGAENRGALPLHHLIEKLKEYHAAPALQGFGISSPEQVSAAVRAGAAGAISGSAIVKIIEKNLASPKQMLAELRSFVSAMKAASRA [A18G], the “ddG of mutation (higher = less stable)” value came out at 4.1 kcal/mol, the denaturant m value is 1.7 kcal/mol/M, the “denaturant midpoint” value is 1.88 M and the unfolding free energy was found to be 3.3 kcal/mol.

With MERYENLFAQLNDRREGVFVPFVTLGDPGIEQSLKIIDTLIDAGADALELGVPFSDPLADGPTIQNANLRAFAAGVTPAQCFEMLALIREKHPTIPIGLLMYANLVFNNGIDAFYARCEQVGVDSVLVADVPVEESAPFRQAALRHNIAPIFICPPNADDDLLRQVASYGRGYTYLLSRSGVTGAENRGALPLHHLIEKLKEYHAAPALQGFGISSPEQVSAAVRAGAAGAISGSAIVKIIEKNLASPKQMLAELRSFVSAMKAASRA [A18V], the denaturant m value was 1.5 kcal/mol/M; the “denaturant midpoint” value was 3.77 M and 2.24 M; the unfolding free energy was 5.8 kcal/mol and 3.3 kcal/mol.

In the case of MERYENLFAQLNDRREGGFVPFVTLGDPGIEQSLKIIDTLIDAGADALELGVPFSDPLADGPTIQNANLRAFAAGVTPAQCFEMLALIREKHPTIPIGLLMYANLVFNNGIDAFYARCEQVGVDSVLVADVPVEESAPFRQAALRHNIAPIFICPPNADDDLLRQVASYGRGYTYLLSRSGVTGAENRGALPLHHLIEKLKEYHAAPALQGFGISSPEQVSAAVRAGAAGAVSGSAIVKIIEKNLASPKQMLAELRSFVSAMKAASRA [A18G I232V], the denaturant m value was 0.9 kcal/mol/M and 1.6 kcal/mol/M; the “denaturant midpoint” value is 2.08 M and 3.46 M; the unfolding free energy was 1.9 kcal/mol and 5.6 kcal/mol.

For the variant MERYENLFAQLNDRREGAFVPFVTLGDPGIEQSLKIIDTLIDAGADALELGVPFSDPLADGPTIQNANLRAFAAGVTPAQCFEMLALIREKHPTIPIGLLMYANLVFNNGIDAFYARCEQVGVDSVLVADVPVEESAPFRQAALRHNIAPIFICPPNADDDLLRQVASYGRGYTYLLSRSGVTGAENRGALPLHHLIEKLKEYHAAPALQGFGISSPEQVSAAVRAGAAGAVSGSAIVKIIEKNLASPKQMLAELRSFVSAMKAASRA [I232V], the “ddG of mutation (higher = less stable)” value is 3.9 kcal/mol and 1.5 kcal/mol; the denaturant m value is 1.5 kcal/mol/M and 1.3 kcal/mol/M; the “denaturant midpoint” value is 2.31 M and 3.28 M; the unfolding free energy was 3.5 kcal/mol and 4.3 kcal/mol.

For MERYENLFAQLNDRREGAFVPFVTLGDPGIEQSLKIIDTLIDAGADALELGVPFSDPLADGPTIQNANLRAFAAGVTPAQCFEMLALIREKHPTIPIGLLMYANLVFNNGIDAFYARCEQVGVDSVLVADVPVEESAPFRQAALRHNIAPIFICPPNADDDLLRQVASYGRGYTYLLSRSGVTGAENRGALPLHHLIEKLKEYHAAPAVQGFGISSPEQVSAAVRAGAAGAISGSAIVKIIEKNLASPKQMLAELRSFVSAMKAASRA [L209V], the “ddG of mutation (higher = less stable)” value is 3.4 kcal/mol and 2 kcal/mol; the denaturant m value was 1.7 kcal/mol/M and 1.1 kcal/mol/M; the “denaturant midpoint” value was 2.3 M and 3.44 M; the unfolding free energy was 4 kcal/mol and 3.8 kcal/mol.

With MERYENLFAQLNDRREGVFVPFVTLGDPGIEQSLKIIDTLIDAGADALELGVPFSDPLADGPTIQNANLRAFAAGVTPAQCFEMLALIREKHPTIPIGLLMYANLVFNNGIDAFYARCEQVGVDSVLVADVPVEESAPFRQAALRHNIAPIFICPPNADDDLLRQVASYGRGYTYLLSRSGVTGAENRGALPLHHLIEKLKEYHAAPALQGFGISSPEQVSAAVRAGAAGAVSGSAIVKIIEKNLASPKQMLAELRSFVSAMKAASRA [A18V I232V], the denaturant m value is 2.1 kcal/mol/M and 1.8 kcal/mol/M; the “denaturant midpoint” value is 2.12 M and 3.73 M; the unfolding free energy is 4.4 kcal/mol and 6.8 kcal/mol.
